Reference: US20070065425A1 (LABORATOIRE FRANCAIS DU FRACTIONNEMENT ET DES …, published 2007)

T1: Factor VIII fragment 379-546Mut (R484A, Y487A, R489A, P492A), tagged (UniProt P00451 398-565, labeled in vitro with L-(35S) methionine)
T1 construct: Produced in rabbit reticulocyte lysate
T1 sequence: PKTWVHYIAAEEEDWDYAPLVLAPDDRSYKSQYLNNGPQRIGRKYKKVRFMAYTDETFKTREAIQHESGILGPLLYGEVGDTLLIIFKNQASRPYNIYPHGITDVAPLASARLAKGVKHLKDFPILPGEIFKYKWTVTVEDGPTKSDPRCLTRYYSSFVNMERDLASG

B1: BOIIB2 antibody (antibody, human IgG4, kappa, V domains shown)
VH: QVQLQESGPGLVKPSETLSLTCTVSGDSISDYYWSWIRQPPGKGLEWIGYFFYSGGSNYNPSLKSRVTMSVDTSKNQFSLKLGSVTAADTAVYYCARSQLRYYLDVWGQGTTVTVSS
VL: EIVLTQSPGTLSLSPGERATLSCRASQSVDSNYLAWYQQKPGQAPRVVIYGASNRATGIPDRFSGSGSGTEFTLTISRLDPEDFAVYYCQQYGSFFGQGTRLEIKR
notes: Human monoclonal IgG4 from a haemophilia A patient; also called anti-A2 antibody; FVIII anti-domain A2 BOIIB2 human antibody

Experiments:
[1] = target: T1, Factor VIII fragment 379-546Mut (R484A, …); assay: immunoprecipitation of 35S-labelled fragment by BOIIB2 on Protein A Sepharose
Experimental: The immunoprecipitation of the transcribed genes is carried out as follows. Sample dilutions containing the specific antibodies are mixed with 40 up of Protein A Sepharose (Pharmacia) in 500 up of a suitable buffer, and the mixture is gently stirred for 1 hour at 4° C. The non-fixed antibodies are eliminated by means of a succession of centrifugations and washings. The complex antibody-Protein A Sepharose is resuspended in 300 up of buffer supplemented with 3 up of polypeptides of Factor VIII labeled in vitro with methionin L-(³⁵S), in order to incubate at 4° C. for 2 hours. The complexes antigens/antibodies are eluted from the beads by boiling for 3 minutes in 30 up of denaturating buffer and the radioactivity is counted. A second aliquot is analyzed by SDS-PAGE and visualized by autoradiography.
The fragments were immunoprecipitated by the human BOIIB2 antibody bound to Protein-A Sepharose. After washing, the complex was eluted and the radioactivity measured (in CPM) by scintillation and charged on SDS-PAGE, followed by an autoradiography. […] The anti-c-myc 9E10 antibody and the human plasma were used as positive and negative controls, respectively.

BOIIB2 antibody = target: B1; assay: SPR (BIAcore), BOIIB2 immobilized on CM5, 30D1 as analyte
Experimental: The kinetics of fixation of the 30D1 anti-idiotypic antibody to the BOIIB2 inhibitor antibody was assessed by the method <<Surface plasmon resonance Biacore>> using the Pharmacia Biosensor BIAcore (Pharmacia Biosensor AB, Uppsala, Sweden). The BOIIB2 antibodies were immobilized on an activated surface of a probe CM5. The 30D1 anti-idiotypic antibodies were infused in several concentrations of immobilized BOIIB2 on the surface of the probe.

Row | binding result [1] | Kd (BOIIB2 antibody) | koff (BOIIB2 antibody) | kon (BOIIB2 antibody) | Binder
1 | no binding |  |  |  | B1
2 |  | ≤ 0.17 nM | ≤ 1e-05 s⁻¹ | 60000 M⁻¹ s⁻¹ | 30D1 monoclonal anti-idiotypic antibody (antibody, mouse IgG1, V domains shown, Tested as hybridoma supernatant and Protein G purified (SPR); also called 30D1 anti-Id; 30DA1) VH: EVQLQQSGPELVKPGASMKISCKASGYSFTDYTMNWVKQSHGKNLEWIGLINPYNVISSYNQKFKGKATLTVDKSSSTAYMELLSLTSEDSAVYYCARKGYGSSMFAYWGQGTLVTVSA VL: DIVMTQSHKFMSTSVGGRVSITCKASQDVTTAVAWYQQKPGQSPKLLIYSASYRYTGVPDRFTGSGSGTDFTFTFSSVQAEDLAVYYCQQHYSIPWTFGGGTKLEIKR
